# Assay results taken from paper PMC10504260, “Identification of a c-type heme oxygenase and its function during acclimation of cyanobacteria to nitrogen fluctuations” (Communications Biology, 2023).
# Key:
# [1] = biological target: Ssr1698 (c-type heme oxygenase, cHO), purified tag-less apo-Ssr1698 (Synechocystis sp. strain PCC 6803); assay: native gel or EMSA; clear native-PAGE (CN-PAGE) of purified tag-less Ssr1698; 5-12.5% acrylamide gradient gel, 0.01% DM and 0.025% deoxycholate in the cathode buffer, 4 °C
# [2] = biological target: Ssr1698 (c-type heme oxygenase, cHO), purified tag-less apo-Ssr1698 (Synechocystis sp. strain PCC 6803); assay: SEC; Superdex 200 Increase 10/300GL equilibrated with PBS buffer (pH 7.4); tag-less Ssr1698 after removal of GST by Factor Xa
# [3] = biological target: T1, Ssr1698 (cHO) (Synechocystis sp. PCC 6803, UniProt P73129); assay: UV-visible assay of MP-11 (c-type heme) degradation with added biliverdin IXα; format: biochemical; details: product inhibition; substrate MP-11, ascorbate, catalase, PBS pH 7.4
# T1 construct: full-length 96-residue protein; GST fusion from pGEX-5X-1 (BamHI/XhoI) in E. coli BL21(DE3) pLysS, GST tag removed by Factor Xa, SEC; dimer
# T1 sequence (P73129 1-96): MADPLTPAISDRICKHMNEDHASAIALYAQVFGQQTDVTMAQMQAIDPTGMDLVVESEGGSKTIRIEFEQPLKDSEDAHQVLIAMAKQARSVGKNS
# [4] = biological target: T1, Ssr1698 (cHO); assay: HPLC and LC-MS of reaction product; format: biochemical; details: substrate MP-11 (c-type heme), 10 mM ascorbic acid, 2 µM catalase, PBS pH 7.4, 2 h
compound,measurement,setting,value
"Ssr1698 (c-type heme oxygenase, cHO), purified tag-less apo-Ssr1698 (enzyme)",stoichiometry N,[1],2
same,stoichiometry N,[2],2
C=CC1=C(C)C(=Cc2[nH]c(C=C3N=C(C=C4NC(=O)C(C)=C4C=C)C(C)=C3CCC(=O)O)c(CCC(=O)O)c2C)NC1=O [biliverdin IXα],suppression of c-type heme degradation,[3],degradation of c-type heme is significantly suppressed after the addition of biliverdin IXα
same,HPLC and LC-MS of reaction product,[4],"biliverdin IXα molecule, 11-amino acid peptide and free iron were identified in the reaction product"
